B1: Tyrosine-protein phosphatase YVH1 (Saccharomyces cerevisiae), Q02256 (parent)
chain: MAGNANSVDEEVTRILGGIYLGGIRPIIDHRPLGAEFNITHILSVIKFQVIPEYLIRKGYTLKNIPIDDDDVTDVLQYFDETNRFIDQCLFPNEVEYSPRLVDFKKKPQRGAVFAHCQAGLSRSVTFIVAYLMYRYGLSLSMAMHAVKRKKPSVEPNENFMEQLHLFEKMGGDFVDFDNPAYKQWKLKQSIKLDPSGSELVSNSGMFKDSESSQDLDKLTEAEKSKVTAVRCKKCRTKLALSTSFIAHDPPSKESSEGHFIKRAANSHRIIDIQESQANCSHFFIEPLKWMQPELQGKQELEGKFSCPGCSSKVGGYNWKGSRCSCGKWVIPAIHLQTSKVDQFPLQSTALPNMVNFESEKVNR
partner: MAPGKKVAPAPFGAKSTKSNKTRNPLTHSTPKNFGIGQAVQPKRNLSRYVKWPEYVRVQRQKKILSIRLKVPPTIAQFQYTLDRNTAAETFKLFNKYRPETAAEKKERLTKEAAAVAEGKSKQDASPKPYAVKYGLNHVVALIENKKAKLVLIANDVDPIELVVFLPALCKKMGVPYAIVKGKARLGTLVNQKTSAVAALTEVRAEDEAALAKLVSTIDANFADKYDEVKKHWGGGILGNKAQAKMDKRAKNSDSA
B2: Ribosome assembly factor MRT4 (Saccharomyces cerevisiae), P33201 (parent)
chain: MPRSKRSKLVTLAQTDKKGRENKERIFDEVREALDTYRYVWVLHLDDVRTPVLQEIRTSWAGSKLIMGKRKVLQKALGEKREEEYKENLYQLSKLCSGVTGLLFTDEDVNTVKEYFKSYVRSDYSRPNTKAPLTFTIPEGIVYSRGGQIPAEEDVPMIHSLEPTMRNKFEIPTKIKAGKITIDSPYLVCTEGEKLDVRQALILKQFGIAASEFKVKVSAYYDNDSSTVESTNINME
partner: B1 partner

Variants of: B1
Conditions: with rl8a_yeast RPL8A

Variant | effect of a mutation on the interaction
C117S | decreasing interaction

Variants of: B2
Conditions: with rl8a_yeast RPL8A

Variant | effect of a mutation on the interaction
G68D | decreasing interaction

— IntAct's records for PubMed 19797078
